Test results: US10259881 (dated 2019)
Where a chain is given by its changes, count along the chain named. Read-outs that look alike come from different tables or passages of the source. Values belong to the binder of their own block, whether it stands above or below them.

Columns and labels:
human CD137 [1] = target: T1, human CD137 (human, UniProt Q07011); test: SPR
human CD137 [2] = target: T1, human CD137; test: SPR; remark: listed apart in the source
murine CD137 = target: T2, murine CD137 (mouse, UniProt P20334)
T2 chain: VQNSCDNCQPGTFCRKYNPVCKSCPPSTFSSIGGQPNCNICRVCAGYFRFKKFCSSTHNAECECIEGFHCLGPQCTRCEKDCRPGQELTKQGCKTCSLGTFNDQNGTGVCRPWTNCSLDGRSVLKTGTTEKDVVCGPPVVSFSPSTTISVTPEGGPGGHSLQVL

human CD137 [3] = target: T1, human CD137; test: SPR; remark: listed apart in the source
human CD137 [4] = target: T1, human CD137; test: SPR; remark: listed apart in the source

T1 sequence (Q07011 24-186): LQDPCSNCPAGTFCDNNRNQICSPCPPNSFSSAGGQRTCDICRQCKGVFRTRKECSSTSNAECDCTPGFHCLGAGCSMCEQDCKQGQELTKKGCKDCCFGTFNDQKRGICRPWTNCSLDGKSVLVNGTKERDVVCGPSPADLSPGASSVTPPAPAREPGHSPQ

- Kd (human CD137 [1]): 87.8 nM
B1: MSH1 (antibody, V domains shown)
VH: QMQLVQSGAEVKKPGASVKVSCKASGYNFGGYYMHWVRQAPGQGLEWMGWVNPHSGGTNYAQKFQGRVTITRDTSASTAYMELSSLRSEDTAVYYCAREGEAWGLDLDLWGQGTLVTVSS
VL: SYELTQPPSVSVAPGKTARITCGGNNIGSKSVHWYQQKPGQAPVLVIYYDSDRPSGIPERFSGSNSGNTATLTISRVEAGDEADYYCQVWDSSSVVFGGGTQLTVL

- Kd (human CD137 [2]): 46.9 nM
B2: MSA11 (antibody, V domains shown)
VH: B1 VH with N28S, G30T, H54K, E101W, W103R, G104R, L105I, L109E
VL: B1 VL

- binding result (murine CD137): no binding
- Kd (human CD137 [3]): 155 nM
B3: MB12 (antibody, V domains shown)
VH: B1 VH with N28S, F29L, G30E, V51I, H54N, W103V, L109Y
VL: B1 VL

- Kd (human CD137 [1]): 16.6 nM
B4: MSB7 (antibody, V domains shown)
VH: B1 VH with N28S, G30S, H54M, E101M, W103M, G104R, D106E, L109K
VL: B1 VL

- Kd (human CD137 [1]): 8.9 nM
B5: MD4 (antibody, V domains shown)
VH: B1 VH with F29W, G30T, V51I, H54M, S55A, E101W, W103R, L105V, D106E, L109M
VL: B1 VL

- binding result (murine CD137): no binding
- Kd (human CD137 [4]): 229 nM
B6: MB3 (antibody, V domains shown)
VH: B1 VH with N28Q, F29M, G30R, V51I, H54N, W103V, L109Y
VL: B1 VL

- Kd (human CD137 [2]): 30.2 nM
B7: MC8 (antibody, V domains shown)
VH: QMQLVQSGAEVKKPGASVKVSCKASGYMPDGYYMHWVRQAPGQGLEWMGWINPRTGGTNYAQKFQGRVTITRDTSASTAYMELSSLRSEDTAVYYCAREGAAFRLELDAWGQGTLVTVSS
VL: B1 VL

- binding result (murine CD137): no binding
- Kd (human CD137 [4]): 218 nM
B8: MSC8 (antibody, V domains shown)
VH: B1 VH with H54K, W103V, L109Y
VL: B1 VL
